What is called Kd is the free concentration of one partner at which half of the binding sites on the other are occupied at equilibrium, for simple one-to-one binding. Read a high Kd as weaker binding.

The values below come from patent US20130079286A1 (Pieris, published 2013).

One assay addresses T1, MBP-Aβ40 fusion protein.
T1 construct: the entry may be a nucleic acid; Biotin-labelled in the capture ELISA, unlabeled in the direct ELISA and SPR; also called MBP-Abeta40
In words: direct ELISA: MBP-Aβ40 coated, mutein titrated, detected via Strep-tag II. As to the method: The Aβ targets Trx-Aβ28 and MBP-Aβ40 as well as the control protein maltose binding protein (MBP) were immobilized at 2 μM in PBS over night. Bound Lcn2 muteins were detected via their Strep-tag II using Streptavidin/AP followed by a chromogenic reaction with pNPP. As a control, the binding of wild-type (wt) lipocalin was tested. The data were fitted to a monovalent binding model.
Alternatively, for a “direct” ELISA, 2 μM unlabeled Aβ40 target from Example 2 was adsorbed onto a 96-well MaxiSorp polystyrene microliter plate (Nunc, Langenselbold, Germany) and incubated with the purified Lcn2 mutein, which was detected via the Strep-tag II using a 1:1500 dilution of Streptavidin/AP conjugate (GE Healthcare UK Ltd, Buckinghamshire, UK). As a control, 2 μM MBP from Example 2 was adsorbed onto the ELISA plate. Absorption at 405 nm was measured in a SpectraMax 250 reader (Molecular Devices, Sunnyvale, USA).

The next assay concerns the target T2, ovalbumin (UniProt P01012 2-386).
T2 sequence (looked up): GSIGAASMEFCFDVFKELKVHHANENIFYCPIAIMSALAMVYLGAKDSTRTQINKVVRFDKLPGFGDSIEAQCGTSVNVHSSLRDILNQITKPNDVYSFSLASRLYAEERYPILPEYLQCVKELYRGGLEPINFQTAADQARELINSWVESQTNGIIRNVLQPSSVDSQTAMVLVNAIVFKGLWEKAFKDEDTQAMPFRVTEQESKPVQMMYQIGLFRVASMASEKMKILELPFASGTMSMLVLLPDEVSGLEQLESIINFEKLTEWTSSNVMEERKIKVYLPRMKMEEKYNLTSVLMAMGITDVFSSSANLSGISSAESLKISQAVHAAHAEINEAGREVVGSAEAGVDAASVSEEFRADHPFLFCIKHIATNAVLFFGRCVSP
In words: capture ELISA: 1 µM Lcn2 protein captured via Strep-tag II on coated StrepMAB-Immo, biotinylated target titrated, ExtrAvidin/AP + pNPP. How it is done:
FIG. 5 depicts the binding activity of the Lcn2 muteins H1-G1, S1-A4, and US7 in capture ELISAs with different biotinylated Aβ targets. StrepMAB-Immo at 10 μg/ml was immobilized on microtitre plates and employed for capturing of 1 JAM Lcn2 muteins via the Strep-tag H. In figures A to C the binding of the Lcn2 muteins S1-A4 and US7 to (A) biotinylated Aβ40, (B) biotinylated Trx-Aβ28, and (C) biotinylated MBP-Aβ40 are shown. Binding was detected by incubation with ExtrAvidin/AP and a subsequent chromogenic reaction with pNPP. Ovalbumin (Ova), thioredoxin (Trx), and maltose binding protein (MBP) were used as negative controls. Additionally, binding of wild-type (wt) lipocalin was tested. The data were fitted to a monovalent binding model.
For selective capturing of the Lcn2 muteins carrying the C-terminal Strep-tag II (Schmidt and Skerra (2007) Nat. Protoc. 2, 1528-1535), a 96-well MaxiSorp polystyrene microtitre plate (Nunc, Langenselbold, Germany) was coated with 10 μg/mL StrepMAB-Immo (IBA, Göttingen, Germany) in PBS over night at 4° C. and blocked with 3% (w/v) BSA in PBS/T at room temperature for 1 h. After 3 washing steps with PBS/T, 50 μL of a 1 μM solution of the purified Lcn2 muteins from Example 7 were applied to all wells for 1 h. After washing, 50 μL of a dilution series of the biotinylated targets Aβ40, MBP-Aβ40 or Trx-Aβ28 from Example 2 were added and incubated for 1 h whereby the biotinylated forms of Ova, MBP and Trx from Example 2 served as negative control proteins. The wells were washed again and bound conjugate was detected with 50 μL of ExtrAvidin/AP conjugate (Sigma-Aldrich, Steinheim, Germany) diluted 1:5000 in PBS/T for 1 h, followed by signal development in the presence of 100 μL 0.5 mg/mL p-nitrophenyl phosphate (AppliChem, Darmstadt, Germany) in 100 mM Tris/HCl, pH 8.8, 100 mM NaCl, 5 mM MgCl₂.
For orientation: An ELISA detects its analyte on a solid surface through an enzyme-linked reagent.

The target of assay [1] is T3, Aβ40 hexamer VFFAED on SPOT membrane.
T3 construct: Called a minimal motif found with the hexameric and decameric peptides
T3 peptide: Ac-VFFAED-{SPOT membrane}
Kind of assay: SPOT membrane, hexameric and decameric peptides. As to the method:
(§1) The SPOT membrane (Amino-PEG500-UC540 sheet, 100×150 mm, Intavis, Köln, Germany) for mapping the Aβ epitope of the Lcn2 muteins S1-A4 and US7 was prepared in an automated procedure as described by Frank ((2002) J. Immunol. Methods 262, 13-26) using a MultiPep RS instrument (Intavis, Köln, Germany) and activated amino acids from the same vendor. The Aβ40 amino acid sequence (SEQ ID NO: 29) was synthesized on the membrane in successive hexamers, decamers, and pentadecamers, each with a dislocation of 1 amino acid, thus covering the entire sequence. The C-termini of these peptides became covalently attached to the membrane whereas their N-termini were acetylated. Immobilized Strep-tag II served as a positive control for the detection method.
(§2) Prior to use, the membrane was washed once with ethanol, 3 times with PBS (4 mM KH₂PO₄, 16 mM Na₂HPO₄, 115 mM NaCl, pH 7.4), and blocked with 3% (w/v) BSA in PBS/T (PBS containing 0.1% (v/v) Tween 20) for 1 h. […]
(§3) Comparison of the membranes incubated with S1-A4 and wild-type Lcn2, respectively, yielded prominent spots that only occurred upon incubation of the membrane with S1-A4 and not with wild-type Lcn2. […] With the shorter hexameric and decameric peptide sequences binding of S1-A4 to the minimal motives VFFAED and FFAEDV was detected.

Assay [2] concerns the target T4, Aβ40 hexamer FFAEDV on SPOT membrane.
T4 construct: Called a minimal motif found with the hexameric and decameric peptides
T4 peptide: Ac-FFAEDV-{SPOT membrane}
In words: SPOT membrane, hexameric and decameric peptides. How it is done:
as §1, §2, §3

B1: Lcn2 mutein S1-A4 (designed binder)
chain: QDSTSDLIPAPPLSKVPLQQNFQDNQFHGKWYVVGVAGNYTLREDKDPLKMYATIYELKEDKSYNVTSVGFRLKKCNYKIRTFVPGSQPGEFTLGIIKSQPGMTSYLVRVVSTNYNQHAMVFFKTVGQNREMFNITLYGRTKELTSELKENFIRFSKSLGLPENHIVFPVPIDQCIDG
With B1, in the assay with MBP-Aβ40 fusion protein, the affinity, expressed as Kd, was 149 nM. For the same molecule, the binding result is reported as “no binding (tested: 250 nM)” with ovalbumin, “binds” in assay [1] and “binds” in assay [2].
